Laboratory results taken from patent US12527862B2, “Bactericidal/permeability increasing protein for use in a method of immunization, preferably as an adjuvant in a method of vaccination” (UNIVERSITÄT REGENSBURG, priority 2018, dated 2026).

What was measured:
[1] = tested on: co-culture of lymphnode cells (LNCs) and dendritic cells (DCs); test: Co-culture of lymph node cells and BMDCs, cytokine secretion; assay type: cell-based, C57BL/6J mice; conditions: BPI 200 nM, n=5 (FIG. 12)
Experimental: All methods mentioned in this example were carried out as described in the preceding examples. Peripheral lymph nodes of C57BL/6J mice were collected to obtain lymph node cells. The cells were isolated by pressing the lymph nodes through a […] cell strainer, flushing the homogenate with either RPMI-VLE or PBS, and collecting the cell dispersion in a 50 ml falcon tube. The suspension was centrifuged (300×g, 21° C., 8 min) and the cell pellet was resuspended in 2 to 5 ml of cell culture medium (VLE-RPMI 1640 medium containing glutamine supplemented with 10% heat-inactivated FCS, 10% penicillin-streptomycin and 50 μM sterile-filtered β-Mercaptoethanol). After this procedure the cell suspension was washed once or twice in cell culture medium or PBS by centrifugation (300×g, 21° C., 8 min). BMDCs were seeded and co-cultured with a threefold excess of peripheral lymph node cells in the presence or absence of BPI (200 nM) in in cell culture medium. Supernatans were collected and measured as described in preceding examples.

naïve CD4+ T cells = test: T cell activation assay with naïve CD4+ T cells and dendritic cell-derived supernatant; assay type: cell-based, C57BL/6J mice; conditions: DC supernatant after BPI 200 nM ± ODN 1826 20 nM, aCD3 and aCD28, day five, Luminex, n=3 (FIG. 13A-C)
Experimental: Naive CD4+CD25-CD44-CD62L+ T cells were isolated from peripheral lymph nodes and spleen of C57BL/6J mice and purified by MACS and FACS. Naïve CD4+ T cells were cultured in the presence of aCD3 and aCD28 antibodies and dendritic cell-derived supernatant after stimulation with BPI (SN BPI, BPI 200 nM) or after stimulation with ODN 1826 (SN CpG, ODN 1826 20 nM) or after stimulation with BPI and ODN 1826 (SN BPI+CpG, BPI 200 nM, ODN 1826 20 nM) or supernatant without addition of BPI or ODN 1826 (SN NT). On day five, cytokine levels were measured by Luminex. • A. Th1 differentiation as shown by detection of IFNγ (n=3). • B. Th17 differentiation as shown by detection of IL-17 (n=3). • C. […] Lymph node cells were stimulated with aCD3 and aCD28 antibodies and SN BPI or SN NT and incubated for 6h before adding a protein transport inhibitor cocktail and incubating for additional 16h. […]
To isolate CD4+SC and pLNC, cells isolated from spleen and peripheral lymph nodes (see 2.1.3) were sorted by magnetic cell sorting (MACS), using a CD4+ T cell isolation kit (#130-104-454, Miltenyi Biotec). […] The flow-through, containing unlabeled CD4+ cells, was collected and cell number was determined using a hemocytometer. CD4+SC and pLNC were used in experiments or labeled with fluorescent antibodies against non-naïve T cell markers for fluorescence activated cell sorting (FACS) of naïve CD4+ T cells. […]

[2] = tested on: human peripheral blood mononuclear cells; test: Stimulation of human peripheral blood mononuclear cells, TNFα ELISA; assay type: cell-based; conditions: BPI 500 nM, 18 h
Experimental: After informed consent, blood was drawn from healthy male volunteers using heparinized blood collection tubes and PBMCs were separated using leucosep tubes containing FICOLL® PAQUE PLUS (Oxford Immunotec, Abingdon, Great Britian) at 1,000×g for 10 min. The pellet was resuspended in AIM VR Medium (Thermo Fisher Scientific Inc., Waltham, MA, USA), counted, and cultivated in 96-well plates for 4 h (1×10^5/100 μl). Then cells were stimulated with (R)-Pam3CSK4 (bLP, 1 nM) or LTA S. pneumoniae Δlgt (a lipoprotein deficient strain, LTA SPΔlgt, 1 μM, n=4) in the presence or absence of BPI (500 nM). The supernatants were collected after 18 h for determination of cytokine concentration by ELISA according to the manufacturer's instructions (OPTEIA™ Human TNFα ELISA Set, BD Biosciences, Heidelberg, Germany).

[3] = tested on: bone-marrow derived dendritic cells; test: Microarray gene expression analysis in BMDCs; assay type: cell-based, C57BL/6J mice; conditions: 4 h
Experimental: All methods mentioned in this example were carried out as described in Example 1. BMDCs were seeded into a tissue-culture-treated 96-well plate in VLE-RPMI 1640 media (10% FCS, 10% Penicillin-Streptomycin, 50 μM β-Mercaptoethanol) and stimulated with 200 nM huBPI or muBPI. 4 h after stimulation, gene expression analysis was performed by microarray analysis (Affymetrix Mouse Gene 2.0 ST, FIGS. 2A and 2B).

B1: bactericidal/permeability-increasing protein (protein)
chain: RIKIPDYSDSFKIKHLGKGHYSFYSMDIREFQLPSSQISMVPNVGLKFSISNANIKISGKWKAQKRFLKMSGNFDLSIEGMSISADLKLGSNPTSGKPTITCSSCSSHINSVHVHISKSKVGWLIQLFHKKIESALRNKMNSQVCEKVTNSVSSELQPYFQTLPVMTKIDSVAGINYGLVAPPATTAETLDVQMKGEFYSENHHNPPPFAPPVMEFPAAHDRMVYLGLSDYFFNTAGLVYQEAGVLKMTLRDDMIPKESKFRLTTKFFGTFLPEVAKKFPNMKIQIHVSASTPPHLSVQPTGLTFYPAVDVQAFAVLPNSSLASLFLIGMHTTGSMEVSAESNRLVGELKLDRLLLELKHSNIGPFPVELLQDIMNYIVPILVLPRVNEKLQKGFPLPTPARVQLYNVVLQPHQNFLLFGADVVYK
modifications: labeled with NT647 (Monolith NT Protein Labeling Kit RED-NHS) in the MST experiments
notes: recombinant human BPI, aa32-487 of huBPI with N-terminal HA signal peptide, expressed in HEK293T cells
[1]
  secretion of IL-4 in co-culture of LNCs and BMDCs: not observed
[1]; threefold excess of lymph node cells
  secretion of IFNγ and IL-17 in co-culture of LNCs and BMDCs: Significant secretion
naïve CD4+ T cells
  activation and differentiation of naïve T cells into Th1, Th17 and Th22 cells (IFNγ, IL-17, IL-22): promotes not only activation but also differentiation of naïve T cells into Th1, Th17 and Th22 cells
[2]
  effect of BPI alone on PBMCs: minor effect
[3]; 200 nM huBPI or muBPI, microarray (FIG. 2A)
  immunostimulatory effect on BMDCs (gene expression): shows an immunostimulatory effect on BMDCs
[3]; 200 nM, microarray (FIG. 2B)
  induced genes important for activation and priming of T cells: IL-2 is the highest induced cytokine
